IntAct's records for PubMed 16467851

B1: 1-phosphatidylinositol 4,5-bisphosphate phosphodiesterase gamma-1 (Bos taurus (Bovine)), P08487 (parent)
chain: MAGAASPCANGCGPSAPSDAEVVHLCRSLEVGTVMTLFYSKKSQRPERKTFQVKLETRQITWSRGADKIEGAIDIREIKEIRPGKTSRDFDRYQEDPAFRPDQSHCFVILYGMEFRLKTLSLQATSEDEVNMWIRGLTWLMEDTLQAATPLQIERWLRKQFYSVDRNREDRISAKDLKNMLSQVNYRVPNMRFLRERLTDLEQRTSDITYGQFAQLYRSLMYSAQKTMDLPFLEASALRAGERPELCRVSLPEFQQFLLEYQGELWAVDRLQVQEFMLSFLRDPLREIEEPYFFLDEFVTFLFSKENSIWNSQLDEVCPDTMNNPLSHYWISSSHNTYLTGDQFSSESSLEAYARCLRMGCRCIELDCWDGPDGMPVIYHGHTLTTKIKFSDVLHTIKEHAFVASEYPVILSIEDHCSIAQQRNMAQYFKKVLGDTLLTKPVDIAADGLPSPNQLKRKILIKHKKLAEGSAYEEVPTSVMYSENDISNSIKNGILYLEDPVNHEWYPHYFVLTSSKIYYSEETSSDQGNEDEEEPKEASGSTELHSNEKWFHGKLGAGRDGRHIAERLLTEYCIETGAPDGSFLVRESETFVGDYTLSFWRNGKVQHCRIHSRQDAGTPKFFLTDNLVFDSLYDLITHYQQVPLRCNEFEMRLSEPVPQTNAHESKEWYHASLTRAQAEHMLMRVPRDGAFLVRKRNEPNSYAISFRAEGKIKHCRVQQEGQTVMLGNSEFDSLVDLISYYEKHPLYRKMKLRYPINEEALEKIGTAEPDYGALYEGRNPGFYVEANPMPTFKCAVKALFDYKAQREDELTFTKSAIIQNVEKQEGGWWRGDYGGKKQLWFPSNYVEEMVSPAALEPEREHLDENSPLGDLLRGVLDVPACQIAVRPEGKNNRLFVFSISMASVAHWSLDVAADSQEELQDWVKKIREVAQTADARLTEGKMMERRKKIALELSELVVYCRPVPFDEEKIGTERACYRDMSSFPETKAEKYVNKAKGKKFLQYNRLQLSRIYPKGQRLDSSNYDPLPMWICGSQLVALNFQTPDKPMQMNQALFLAGGHCGYVLQPSVMRDEAFDPFDKSSLRGLEPCAICIEVLGARHLPKNGRGIVCPFVEIEVAGAEYDSIKQKTEFVVDNGLNPVWPAKPFHFQISNPEFAFLRFVVYEEDMFSDQNFLAQATFPVKGLKTGYRAVPLKNNYSEGLELASLLVKIDVFPAKQENGDLSPFGGASLRERSCDASGPLFHGRAREGSFEARYQQPFEDFRISQEHLADHFDGRDRRTPRRTRVNGDNRL
partner: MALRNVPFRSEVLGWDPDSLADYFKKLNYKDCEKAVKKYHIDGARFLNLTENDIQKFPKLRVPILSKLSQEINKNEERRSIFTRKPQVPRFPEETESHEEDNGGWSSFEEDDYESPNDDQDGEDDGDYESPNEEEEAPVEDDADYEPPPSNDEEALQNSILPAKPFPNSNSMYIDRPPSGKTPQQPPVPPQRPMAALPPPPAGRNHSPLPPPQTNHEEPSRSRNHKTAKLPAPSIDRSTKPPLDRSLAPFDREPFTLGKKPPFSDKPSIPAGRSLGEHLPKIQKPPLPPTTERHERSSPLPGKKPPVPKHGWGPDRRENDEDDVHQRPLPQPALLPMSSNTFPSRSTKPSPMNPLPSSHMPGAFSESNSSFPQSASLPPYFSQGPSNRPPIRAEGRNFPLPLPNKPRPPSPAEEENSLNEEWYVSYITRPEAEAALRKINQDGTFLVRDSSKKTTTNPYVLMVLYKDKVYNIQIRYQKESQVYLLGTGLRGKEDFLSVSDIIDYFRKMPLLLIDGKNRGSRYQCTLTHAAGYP
B2: 1-phosphatidylinositol 4,5-bisphosphate phosphodiesterase gamma-1 (Bos taurus (Bovine)), P08487 (parent)
chain: B1 chain
partner: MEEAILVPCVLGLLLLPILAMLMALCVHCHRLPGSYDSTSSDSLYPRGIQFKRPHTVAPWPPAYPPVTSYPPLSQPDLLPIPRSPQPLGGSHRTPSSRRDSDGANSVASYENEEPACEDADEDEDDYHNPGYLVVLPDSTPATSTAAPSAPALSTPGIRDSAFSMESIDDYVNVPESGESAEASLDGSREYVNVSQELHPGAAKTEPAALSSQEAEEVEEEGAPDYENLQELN
B3: 1-phosphatidylinositol 4,5-bisphosphate phosphodiesterase gamma-1 (Bos taurus (Bovine)), P08487 (parent)
chain: B1 chain
partner: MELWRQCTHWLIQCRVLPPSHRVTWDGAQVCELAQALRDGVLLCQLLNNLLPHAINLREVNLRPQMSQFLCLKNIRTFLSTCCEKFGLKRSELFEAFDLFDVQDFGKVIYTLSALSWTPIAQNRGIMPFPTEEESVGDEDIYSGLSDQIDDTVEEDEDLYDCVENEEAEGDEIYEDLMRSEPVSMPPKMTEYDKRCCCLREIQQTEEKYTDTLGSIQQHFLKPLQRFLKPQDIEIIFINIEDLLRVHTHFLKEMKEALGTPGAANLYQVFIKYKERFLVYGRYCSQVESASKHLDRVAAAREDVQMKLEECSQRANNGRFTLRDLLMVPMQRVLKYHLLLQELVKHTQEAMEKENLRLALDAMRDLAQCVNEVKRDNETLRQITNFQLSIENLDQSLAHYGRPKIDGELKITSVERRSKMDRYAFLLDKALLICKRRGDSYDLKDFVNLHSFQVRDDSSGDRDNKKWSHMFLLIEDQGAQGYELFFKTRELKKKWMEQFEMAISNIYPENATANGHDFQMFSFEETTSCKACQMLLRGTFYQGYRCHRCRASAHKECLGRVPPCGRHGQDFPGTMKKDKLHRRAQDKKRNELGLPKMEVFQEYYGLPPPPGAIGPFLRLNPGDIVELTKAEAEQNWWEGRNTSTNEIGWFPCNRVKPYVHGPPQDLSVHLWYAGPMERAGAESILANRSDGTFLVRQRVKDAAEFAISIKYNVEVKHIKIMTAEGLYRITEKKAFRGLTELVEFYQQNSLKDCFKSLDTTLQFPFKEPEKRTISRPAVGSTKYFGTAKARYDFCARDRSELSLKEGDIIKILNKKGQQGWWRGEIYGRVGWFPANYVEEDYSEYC
B4: 1-phosphatidylinositol 4,5-bisphosphate phosphodiesterase gamma-1 (Bos taurus (Bovine)), P08487 (parent)
chain: B1 chain

Variants of: B1
Conditions: with lcp2_human LCP2, Q13094

Row | Variant | effect of a mutation on the interaction
1 | P842K | disrupting interaction

Variants of: B1
Conditions: with lcp2_human LCP2, Q13094
Remark: another data set of the same source

Row | Variant | effect of a mutation on the interaction
2 | R694K | disrupting interaction
3 | R696K | disrupting interaction

Variants of: B1
Conditions: with lcp2_human LCP2, Q13094
Remark: another data set of the same source

Row | Variant | effect of a mutation on the interaction
4 | R586K | disrupting interaction

Variants of: B2
Conditions: with LAT

Row | Variant | effect of a mutation on the interaction
5 | R694K | disrupting interaction
6 | P842K | disrupting interaction
7 | R696K | disrupting interaction

Variants of: B2
Conditions: with LAT
Remark: another data set of the same source

Row | Variant | effect of a mutation on the interaction
8 | R586K | disrupting interaction

Variants of: B3
Conditions: with vav_human VAV1, P15498

Row | Variant | effect of a mutation on the interaction
9 | R694K | disrupting interaction
10 | R696K | disrupting interaction

Variants of: B3
Conditions: with vav_human VAV1, P15498
Remark: another data set of the same source

Row | Variant | effect of a mutation on the interaction
11 | R586K | disrupting interaction

Variants of: B3
Conditions: with vav_human VAV1, P15498
Remark: another data set of the same source

Row | Variant | effect of a mutation on the interaction
12 | P842K | disrupting interaction

Variants of: B4
Conditions: with cbl_human CBL

Row | Variant | effect of a mutation on the interaction
13 | P842K | disrupting interaction
